Measured values as given in patent CN111705065A.

Molecular target: 重组KRAS突变体蛋白 (KRAS Mut)
Experiment: indirect ELISA, KRAS Mut coated at 1 μg/mL, antibody diluted 1:10^3 to 1:10^6, HRP goat anti-mouse, OD450

Chain of 重组KRAS突变体蛋白 (KRAS Mut) (chain, as listed by the source limits assumed): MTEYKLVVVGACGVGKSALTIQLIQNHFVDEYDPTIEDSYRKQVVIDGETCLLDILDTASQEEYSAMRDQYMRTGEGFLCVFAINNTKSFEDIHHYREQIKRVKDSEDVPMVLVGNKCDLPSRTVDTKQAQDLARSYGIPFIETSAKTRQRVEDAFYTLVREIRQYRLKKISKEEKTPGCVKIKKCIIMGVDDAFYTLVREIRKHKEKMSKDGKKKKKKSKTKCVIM

效价 (ELISA titer) (dilution factor (1:x)): 100000
B1: 抗KRAS突变体单克隆抗体 KRAS Mut mAb (antibody, V domains shown)
VH: QIQLQESGPGLVKPSQSLSLTCTVTGYSITSDYAWNWIRQFPGNKLEWMGYINYSGSTSYNPSLKSRISITRDTSKNQFFLQLISVTSEDTATYYCAGSGYVRGFAYWGQGTLVTVSA
VL: DICKTQSHKFMSTSVGDRVSITCKASQDVGTAVAWYQQKPGQSPKLLIYWASTRHTGVPDRFTGSESGTDFTLTISNVQSEDLADYFCQQYSSYPYTFGGGTKLEIKR
